Measured values published in patent US20160251438A1 (LUDWIG INSTITUTE FOR CANCER RESEARCH, published 2016).

Tests used:
Assay in all cases: FACS titration on transfected 293T; EC50 mutant / EC50 WT [cont.) B]
[1] = biological target: GARP G118L/G119L / TGF-β1 complex (human, UniProt Q14392 20-662; P01137 30-390)
Experimental: (§1) Intensities of staining at each concentration of antibody relative to the maximal intensity measured at 5 μg/ml were determined as follows:
(§2) The relative staining intensities were plotted according to the concentration of antibody used for staining, and a non-linear regression analysis was used with the Prism software to determine an EC₅₀ value for binding of the antibody to the WT and to each of the various mutant GARP/TGF-β1 complexes. If the ratio between the EC₅₀ measured on the mutant and the EC₅₀ measured on the WT was >2, the mutation was considered to induce a reduced avidity for binding by the antibody. The ratio of EC₅₀ (mutant vs WT) for MHG-8 and LHG-10 are indicated below each mutation on FIG. 19, parts A and B, respectively.

[2] = biological target: GARP E189A / TGF-β1 complex (human, UniProt Q14392 20-662; P01137 30-390)
Experimental: as §1, §2

[3] = biological target: GARP T162D / TGF-β1 complex (human, UniProt Q14392 20-662; P01137 30-390)
Experimental: as §1, §2

[4] = biological target: GARP / TGF-β1 E146R complex (human, UniProt Q14392 20-662; P01137 30-390)
Experimental: as §1, §2

[5] = biological target: GARP / TGF-β1 S337A complex (human, UniProt Q14392 20-662; P01137 30-390)
Experimental: as §1, §2

[6] = biological target: GARP R170A / TGF-β1 complex (human, UniProt Q14392 20-662; P01137 30-390)
Experimental: as §1, §2

[7] = biological target: GARP / TGF-β1 Q269Y complex (human, UniProt Q14392 20-662; P01137 30-390)
Experimental: as §1, §2

[8] = biological target: GARP / TGF-β1 R58A complex (human, UniProt Q14392 20-662; P01137 30-390)
Experimental: as §1, §2

[9] = biological target: GARP T165A / TGF-β1 complex (human, UniProt Q14392 20-662; P01137 30-390)
Experimental: as §1, §2

[10] = biological target: GARP R143Y / TGF-β1 complex (human, UniProt Q14392 20-662; P01137 30-390)
Experimental: as §1, §2

[11] = biological target: GARP Y137H / TGF-β1 complex (human, UniProt Q14392 20-662; P01137 30-390)
Experimental: as §1, §2

[12] = biological target: GARP / TGF-β1 Q272Y complex (human, UniProt Q14392 20-662; P01137 30-390)
Experimental: as §1, §2

[13] = biological target: GARP G139N / TGF-β1 complex (human, UniProt Q14392 20-662; P01137 30-390)
Experimental: as §1, §2

[14] = biological target: GARP M111T/A112G/T113M / TGF-β1 complex (human, UniProt Q14392 20-662; P01137 30-390)
Experimental: as §1, §2

[15] = biological target: GARP / TGF-β1 H270Y complex (human, UniProt Q14392 20-662; P01137 30-390)
Experimental: as §1, §2

[16] = biological target: GARP L140K/E142L / TGF-β1 complex (human, UniProt Q14392 20-662; P01137 30-390)
Experimental: as §1, §2

[17] = biological target: GARP R163E / TGF-β1 complex (human, UniProt Q14392 20-662; P01137 30-390)
Experimental: as §1, §2

[18] = biological target: GARP S138G / TGF-β1 complex (human, UniProt Q14392 20-662; P01137 30-390)
Experimental: as §1, §2

[19] = biological target: GARP R166M/H167E / TGF-β1 complex (human, UniProt Q14392 20-662; P01137 30-390)
Experimental: as §1, §2

[20] = biological target: GARP / TGF-β1 Y284A complex (human, UniProt Q14392 20-662; P01137 30-390)
Experimental: as §1, §2

Sequence of GARP M111T/A112G/T113M / TGF-β1 complex (Q14392 20-662 M111T/A112G/T113M limits assumed, chain 1 of 2): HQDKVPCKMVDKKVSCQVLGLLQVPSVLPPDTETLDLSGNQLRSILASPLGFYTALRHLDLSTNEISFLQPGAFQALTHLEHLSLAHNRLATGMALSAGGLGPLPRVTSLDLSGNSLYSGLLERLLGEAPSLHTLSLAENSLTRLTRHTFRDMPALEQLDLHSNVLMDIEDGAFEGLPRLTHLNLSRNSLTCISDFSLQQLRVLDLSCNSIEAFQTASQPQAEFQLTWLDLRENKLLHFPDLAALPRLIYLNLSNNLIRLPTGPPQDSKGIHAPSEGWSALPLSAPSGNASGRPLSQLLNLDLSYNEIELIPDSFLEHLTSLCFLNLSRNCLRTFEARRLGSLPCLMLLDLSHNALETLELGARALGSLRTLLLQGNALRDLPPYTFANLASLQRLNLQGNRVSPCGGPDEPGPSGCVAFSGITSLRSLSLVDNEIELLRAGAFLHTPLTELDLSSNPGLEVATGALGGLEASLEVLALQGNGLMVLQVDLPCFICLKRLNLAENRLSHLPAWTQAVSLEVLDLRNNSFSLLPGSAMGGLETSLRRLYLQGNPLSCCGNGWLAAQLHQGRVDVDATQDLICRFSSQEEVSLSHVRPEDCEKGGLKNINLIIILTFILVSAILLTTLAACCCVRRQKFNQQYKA
Sequence of GARP M111T/A112G/T113M / TGF-β1 complex (P01137 30-390 limits assumed, chain 2 of 2): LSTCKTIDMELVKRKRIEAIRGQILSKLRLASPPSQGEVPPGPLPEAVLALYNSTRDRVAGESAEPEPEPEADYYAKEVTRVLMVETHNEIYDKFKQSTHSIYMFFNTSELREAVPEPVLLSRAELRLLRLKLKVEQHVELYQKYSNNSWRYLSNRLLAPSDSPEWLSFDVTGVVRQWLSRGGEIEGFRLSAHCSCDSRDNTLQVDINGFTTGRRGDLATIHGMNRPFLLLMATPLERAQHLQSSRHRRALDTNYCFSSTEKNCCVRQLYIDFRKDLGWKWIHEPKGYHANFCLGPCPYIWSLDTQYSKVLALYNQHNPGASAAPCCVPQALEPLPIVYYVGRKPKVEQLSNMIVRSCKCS
Sequence of GARP E189A / TGF-β1 complex (Q14392 20-662 E189A limits assumed, chain 1 of 2): as the sequence (Q14392 20-662 M111T/A112G/T113M limits assumed, chain 1 of 2) above, with T92M, G93A, M94T, E170A counted along it
Sequence of GARP E189A / TGF-β1 complex (P01137 30-390 limits assumed, chain 2 of 2): as the sequence (P01137 30-390 limits assumed, chain 2 of 2) above
Sequence of GARP R163E / TGF-β1 complex (Q14392 20-662 R163E limits assumed, chain 1 of 2): as the sequence (Q14392 20-662 M111T/A112G/T113M limits assumed, chain 1 of 2) above, with T92M, G93A, M94T, R144E counted along it
Sequence of GARP R163E / TGF-β1 complex (P01137 30-390 limits assumed, chain 2 of 2): as the sequence (P01137 30-390 limits assumed, chain 2 of 2) above
Sequence of GARP / TGF-β1 S337A complex (Q14392 20-662 limits assumed, chain 1 of 2): as the sequence (Q14392 20-662 M111T/A112G/T113M limits assumed, chain 1 of 2) above, with T92M, G93A, M94T counted along it
Sequence of GARP / TGF-β1 S337A complex (P01137 30-390 S337A limits assumed, chain 2 of 2): as the sequence (P01137 30-390 limits assumed, chain 2 of 2) above, with S308A counted along it

B1: LHG-10 (antibody, human IgG1, V domains shown)
VH: EVQLVQPGAELRNSGASVKVSCKASGYRFTSYYIDWVRQAPGQGLEWMGRIDPEDGGTKYAQKFQGRVTFTADTSTSTAYVELSSLRSEDTAVYYCARNEWETVVVGDLMYEYEYWGQGTQVTVSS
VL: DIQMTQSPTSLSASLGDRVTITCQASQSISSYLAWYQQKPGQAPKLLIYGASRLQTGVPSRFSGSGSGTSFTLTISGLEAEDAGTYYCQQYDSLPVTFGQGTKVELK
notes: llama-derived V regions in a full human IgG1
Ratio of EC50 (mutant / wt) [1]: 0.8
Ratio of EC50 (mutant / wt) [2]: 0.8
Ratio of EC50 (mutant / wt) [3]: 2.5
Ratio of EC50 (mutant / wt) [4]: 0.8
Ratio of EC50 (mutant / wt) [5]: 1.4
Ratio of EC50 (mutant / wt) [6]: 1.5
Ratio of EC50 (mutant / wt) [7]: 0.8
Ratio of EC50 (mutant / wt) [8]: 1.5
Ratio of EC50 (mutant / wt) [9]: 1
Ratio of EC50 (mutant / wt) [10]: 1.6
Ratio of EC50 (mutant / wt) [11]: 0.6
Ratio of EC50 (mutant / wt) [12]: 0.9
Ratio of EC50 (mutant / wt) [13]: 1.2
Ratio of EC50 (mutant / wt) [14]: 1.2
Ratio of EC50 (mutant / wt) [15]: 0.7
Ratio of EC50 (mutant / wt) [16]: 0.7
Ratio of EC50 (mutant / wt) [17]: 4.1
Ratio of EC50 (mutant / wt) [18]: 0.6
Ratio of EC50 (mutant / wt) [19]: 1.5
Ratio of EC50 (mutant / wt) [20]: 1.9
